Source: patent US20250011363A1, “OPTIMIZED SHORTENED PEPTIDE THAT BINDS TO ACETYLCHOLINE RECEPTOR, AND USE THEREOF” (SKINMED CO., LTD., priority 2021, published 2025)

Target: acetylcholine receptor (Homo sapiens, UniProt P02708)
Experiment: SPR binding affinity (RU) of optimized 5mer/6mer/7mer peptides, Examples 6-7
Details: 6mer-1 Top sequence; SPR; peptides tested at 10 μM
Procedure, shortened: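 Synthetic 5mer and 6mer peptides, built from frequent or infrequent amino-acid combinations, were tested at 10 μM for binding to the human acetylcholine receptor by surface plasmon resonance. Binding is reported in response units (RU).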

acetylcholine receptor, sequence (P02708 21-457): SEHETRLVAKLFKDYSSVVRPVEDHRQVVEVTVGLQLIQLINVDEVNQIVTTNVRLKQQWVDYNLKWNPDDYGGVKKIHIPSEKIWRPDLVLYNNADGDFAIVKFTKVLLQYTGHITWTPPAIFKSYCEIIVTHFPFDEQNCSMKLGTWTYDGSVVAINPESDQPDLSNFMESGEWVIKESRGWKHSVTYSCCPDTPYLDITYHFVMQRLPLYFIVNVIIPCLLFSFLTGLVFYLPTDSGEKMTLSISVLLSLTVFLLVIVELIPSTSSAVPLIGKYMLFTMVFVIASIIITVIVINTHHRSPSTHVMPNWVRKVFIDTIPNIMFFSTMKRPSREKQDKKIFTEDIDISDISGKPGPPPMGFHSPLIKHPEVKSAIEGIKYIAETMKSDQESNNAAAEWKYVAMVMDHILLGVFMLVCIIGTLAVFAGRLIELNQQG

Row | Substance | Binding affinity [Ru]
1 | 6mer-1-242 (KRQYLK) | 148
2 | 6mer-1-230 (RKGYCK) | 128
3 | 6mer-1-270 (KRGLRR) | 149
4 | 6mer-1-277 (KKGLCR) | 141
5 | 6mer-1-272 (KKQVSR) | 139
6 | 6mer-1-353 (KRLYLK) | 126
7 | 6mer-1-217 (KRVLQR) | 135
8 | 6mer-1-314 (RRRILR) | 141
9 | 6mer-1-276 (RRVICK) | 128
10 | 6mer-1-221 (KKWFQR) | 148

Same assay, conditions: 6mer-2 Top sequence; SPR; peptides tested at 10 μM

Row | Substance | Binding affinity [Ru]
11 | 6mer-2-31 (KSYQRK) | 121
12 | 6mer-2-187 (KRRRRK) | 145
13 | 6mer-2-89 (KSRSKK) | 141
14 | 6mer-2-155 (KGVYKK) | 139
15 | 6mer-2-186 (KQICRK) | 127

Same assay, conditions: SPR, Resonance Units; 5mer Bottom sequence (bottom combinations); peptides tested at 10 μM

Row | Substance | Binding affinity [Ru]
16 | 5mer-962 (RIWKR) | 23
17 | 5mer-984 (KNAHK) | 11
18 | 5mer-991 (RPEFR) | 24
19 | 5mer-992 (RNDKK) | 15
20 | 5mer-925 (KDCFK) | 25
21 | 5mer-1045 (KMDEK) | 22
22 | 5mer-1027 (KNTNR) | 28
23 | 5mer-1064 (KCMKR) | 20
24 | 5mer-630 (RITFR) | 30
25 | 5mer-953 (RKMAR) | 23
26 | 5mer-610 (KCDDK) | 16
27 | 5mer-1030 (RISDK) | 18
28 | 5mer-917 (KCAPR) | 11
29 | 5mer-797 (KETHK) | 15
30 | 5mer-1051 (RYAHR) | 28
31 | 5mer-655 (RKCIR) | 15
32 | 5mer-796 (KNWVR) | 17
33 | 5mer-801 (KFHGR) | 20

Same assay, conditions: SPR, Resonance Units; peptides tested at 10 μM; 6mer-1 Bottom sequence

Row | Substance | Binding affinity [Ru]
34 | 6mer-1-1181 (RRMDAK) | 21
35 | 6mer-1-1126 (RRHCDK) | 41
36 | 6mer-1-1121 (KKTWWR) | 28
37 | 6mer-1-1109 (KRCCVR) | 41
38 | 6mer-1-1062 (RRICMR) | 27
39 | 6mer-1-1019 (KRDAWR) | 37
40 | 6mer-1-1056 (RRNTAK) | 27

Same assay, conditions: SPR, Resonance Units; peptides tested at 10 μM; 6mer-1 Bottom sequence (Table 11)

Row | Substance | Binding affinity [Ru]
41 | 6mer-1-740 (RKDNKR) | 26
42 | 6mer-1-704 (RRMCER) | 16
43 | 6mer-1-783 (KKNEFK) | 29
44 | 6mer-1-657 (RRCTVR) | 17
45 | 6mer-1-710 (KKMHHR) | 21
46 | 6mer-1-760 (KRMMVR) | 21
47 | 6mer-1-653 (KRMTHR) | 15
48 | 6mer-1-672 (RKMEIR) | 17
49 | 6mer-1-741 (RKEAGR) | 24
50 | 6mer-1-786 (KRIKEK) | 26
51 | 6mer-1-641 (RREMFK) | 21

Same assay, conditions: SPR, Resonance Units; peptides tested at 10 μM; 6mer-2 Bottom sequence

Row | Substance | Binding affinity [Ru]
52 | 6mer-2-973 (KCPIKK) | 41
53 | 6mer-2-742 (KNNWRR) | 32
54 | 6mer-2-784 (KAEWRK) | 26
55 | 6mer-2-764 (RNAVKK) | 31
56 | 6mer-2-731 (KASWKK) | 19
57 | 6mer-2-648 (RYPDRK) | 23
58 | 6mer-2-789 (KNENRK) | 24
59 | 6mer-2-874 (KIHFRK) | 33
60 | 6mer-2-605 (KNCGKK) | 17
61 | 6mer-2-960 (RDCVKR) | 29
62 | 6mer-2-982 (RMHAKK) | 38
63 | 6mer-2-634 (RYEHRK) | 33
64 | 6mer-2-705 (RENFKK) | 11
65 | 6mer-2-990 (RKKMKR) | 41
66 | 6mer-2-873 (KNWGRR) | 11
67 | 6mer-2-716 (RTWKKR) | 18
68 | 6mer-2-853 (KHTGRR) | 29
69 | 6mer-2-964 (KCEDRK) | 41
70 | 6mer-2-837 (REDFRR) | 32
71 | 6mer-2-663 (KFAGRR) | 24
72 | 6mer-2-711 (KECGRR) | 29
73 | 6mer-2-752 (KINWRR) | 29
74 | 6mer-2-745 (KNTERR) | 17
75 | 6mer-2-840 (KDWDRK) | 15
76 | 6mer-2-816 (RKMGKR) | 15

Same assay, conditions: SPR, Resonance Units; peptides tested at 10 μM; 6mer-2 Top sequence

Row | Substance | Binding affinity [Ru]
77 | 6mer-2-527 (RGQTRR) | 145
78 | 6mer-2-531 (KVIYKR) | 148
79 | 6mer-2-414 (KWRQKK) | 135
80 | 6mer-2-513 (RRLTRK) | 121
81 | 6mer-2-489 (RVISKK) | 142

Same assay, conditions: SPR, Resonance Units; peptides tested at 10 μM; 6mer-2 Top sequence (Table 12)

Row | Substance | Binding affinity [Ru]
82 | 6mer-2-262 (KWILKR) | 142
83 | 6mer-2-297 (RSLSRR) | 139
84 | 6mer-2-348 (KSQLRR) | 153
85 | 6mer-2-401 (RSILRK) | 153
86 | 6mer-2-341 (KVVTKR) | 144
87 | 6mer-2-291 (RRYRKR) | 154
88 | 6mer-2-325 (RVFSRK) | 142
89 | 6mer-2-263 (RRICKR) | 145
90 | 6mer-2-206 (KWQYKK) | 148
91 | 6mer-2-321 (KLVSRK) | 139
92 | 6mer-2-220 (KVYSKR) | 135
93 | 6mer-2-379 (RGVQKR) | 127

Same assay, conditions: SPR, peptides at 10 μM; 6mer-2 Bottom sequence

Row | Substance | Binding affinity [Ru]
94 | 6mer-2-1086 (KNDWRK) | 21
95 | 6mer-2-1103 (RDAWRK) | 42
96 | 6mer-2-1073 (KYSWRK) | 24
97 | 6mer-2-1190 (KACIRR) | 32
98 | 6mer-2-1187 (RTADRK) | 36
99 | 6mer-2-1031 (RAWERK) | 33
100 | 6mer-2-1050 (KPPPRK) | 26

Same assay, conditions: SPR, peptides tested at 10 μM; 5mer Top sequence

Row | Substance | Binding affinity [Ru]
101 | 5mer-170 (RLICK) | 62
102 | 5mer-450 (RVIQK) | 78
103 | 5mer-83 (KGFSR) | 64
104 | 5mer-457 (RGQYK) | 59
105 | 5mer-112 (KRYYR) | 58
106 | 5mer-61 (RLILK) | 66
107 | 5mer-402 (RLRYR) | 86
108 | 5mer-200 (KRVRR) | 55
109 | 5mer-426 (RRVSR) | 57
110 | 5mer-314 (RWYTR) | 80

Same assay, conditions: SPR, peptides tested at 10 μM; 5mer Top sequence (top combinations)

Row | Substance | Binding affinity [Ru]
111 | 5mer-577 (KLVTK) | 77
112 | 5mer-512 (RLYLK) | 70
113 | 5mer-287 (KRYRR) | 68
114 | 5mer-274 (RQVRK) | 62
115 | 5mer-561 (KWRCK) | 72
116 | 5mer-579 (RSLYK) | 53
117 | 5mer-277 (RVFTR) | 82
118 | 5mer-219 (KQYTR) | 55

Same assay, conditions: SPR, peptides tested at 10 μM; 6mer-1 Bottom sequence (Table 11)

Row | Substance | Binding affinity [Ru]
119 | 6mer-1-937 (RKPTNR) | 34
120 | 6mer-1-877 (KKPEWR) | 19
121 | 6mer-1-956 (KRKSNK) | 34

Same assay, conditions: SPR, peptides tested at 10 μM; 6mer-1 Top sequence

Row | Substance | Binding affinity [Ru]
122 | 6mer-1-480 (KKQFYK) | 121
123 | 6mer-1-533 (RKWFSR) | 145
124 | 6mer-1-453 (KKWQQK) | 154
125 | 6mer-1-450 (RKVVYK) | 151
126 | 6mer-1-497 (KRRQLR) | 133
127 | 6mer-1-438 (RRGFQK) | 142
128 | 6mer-1-462 (RKQILK) | 126
129 | 6mer-1-492 (RRWRQK) | 139

Same assay, conditions: SPR, peptides tested at 10 μM; 6mer-1 Top sequence (top combinations)

Row | Substance | Binding affinity [Ru]
130 | 6mer-1-5 (KRQIRK) | 135
131 | 6mer-1-197 (RRSIRR) | 139
132 | 6mer-1-188 (RKSLQK) | 122
133 | 6mer-1-154 (KKLYSR) | 153
134 | 6mer-1-86 (KKWRQK) | 142
135 | 6mer-1-73 (KKQQQR) | 142
136 | 6mer-1-160 (RRVIQR) | 149
137 | 6mer-1-34 (RKWLYK) | 135
138 | 6mer-1-157 (KKSLLR) | 123

Same assay, conditions: SPR; XRRGVRR-7mer and RRGVRRX-7mer

Row | Substance | Binding affinity, values relative to the RRGVRR sequence
139 | 3667 (RRGVRRI) [compound 3667] | 138
140 | 3646 (LRRGVRR) [compound 3646] | 149

Same assay, conditions: SPR; peptides tested at 10 μM; 5mer Bottom sequence

Row | Substance | Binding affinity [Ru]
141 | 5mer-896 (RYHWR) | 27
142 | 5mer-835 (RFMMR) | 14
143 | 5mer-897 (KFCER) | 30
144 | 5mer-878 (KHTER) | 24
145 | 5mer-821 (RESDR) | 12
146 | 5mer-1195 (RHWEK) | 19
147 | 5mer-838 (RHSMK) | 13
148 | 5mer-879 (KDCMK) | 13
149 | 5mer-875 (KHCNK) | 33
150 | 5mer-861 (KTKIR) | 20
151 | 5mer-1122 (RNTDR) | 14
152 | 5mer-828 (RFCWR) | 27
